The source of these data is US6875851B1 (priority 1999, dated 2005).

The test system of data set [1] is PTP-A. The class given is biochemical, P. gingivalis.
The subject of data set [2] is PTP-A. The class given is biochemical, P. gingivalis. This is another data set of the same source.
A short description of data set [3]: pH optimum and stability of PTP-A by amidolytic activity assay. The note with it: 0.2 M HEPES. The class given is physicochemical, P. gingivalis. As to the method:
Enzyme Activity Assays—Routinely, the tripeptidyl peptidase amidolytic activity was measured with H-Ala-Phe-Pro-pNA (1 mM) in 0.2 M HEPES (N-2-hydroxyethylpeperazine,N′-2-ethansulfonic acid), pH 7.5 at 37° C. The concentration of enzyme was 0.1 nM to 1 nM. The assay was performed in a total volume of 0.2 ml on microplates, and the initial turnover rate was recorded at 405 nm using a microplate reader (Spectramax Molecular Devices, Sunnyvale, Calif.). In inhibition studies, the enzyme was first preincubated with inhibitor for 15 min at 37° C., substrate added, and residual activity recorded after 5 minutes to 30 minutes. H-Gly-Pro-pNA, Z-Ala-Pro-pNA, Z-Gly-Pro-pNA and H-Pro-pNA (1 mM final concentration) were assayed in the same manner.
PTP-A activity was not affected by class specific synthetic inhibitors of cysteine or metalloproteinases (Table 2).

B1: α2-macroglobulin: Human plasma inhibitor (protein)
chain: SVSGKPQYMVLVPSLLHTETTEKGCVLLSYLNETVTVSASLESVRGNRSLFTDLEAENDVLHCVAFAVPKSSSNEEVMFLTVQVKGPTQEFKKRTTVMVKNEDSLVFVQTDKSIYKPGQTVKFRVVSMDENFHPLNELIPLVYIQDPKGNRIAQWQSFQLEGGLKQFSFPLSSEPFQGSYKVVVQKKSGGRTEHPFTVEEFVLPKFEVQVTVPKIITILEEEMNVSVCGLYTYGKPVPGHVTVSICRKYSDASDCHGEDSQAFCEKFSGQLNSHGCFYQQVKTKVFQLKRKEYEMKLHTEAQIQEEGTVVELTGRQSSEITRTITKLSFVKVDSHFRQGIPFFGQVRLVDGKGVPIPNKVIFIRGNEANYYSNATTDEHGLVQFSINTTNVMGTSLTVRVNYKDRSPCYGYQWVSEEHEEAHHTAYLVFSPSKSFVHLEPMSHELPCGHTQTVQAHYILNGGTLLGLKKLSFYYLIMAKGGIVRTGTHGLLVKQEDMKGHFSISIPVKSDIAPVARLLIYAVLPTGDVIGDSAKYDVENCLANKVDLSFSPSQSLPASHAHLRVTAAPQSVCALRAVDQSVLLMKPDAELSASSVYNLLPEKDLTGFPGPLNDQDNEDCINRHNVYINGITYTPVSSTNEKDMYSFLEDMGLKAFTNSKIRKPKMCPQLQQYEMHGPEGLRVGFYESDVMGRGHARLVHVEEPHTETVRKYFPETWIWDLVVVNSAGVAEVGVTVPDTITEWKAGAFCLSEDAGLGISSTASLRAFQPFFVELTMPYSVIRGEAFTLKATVLNYLPKCIRVSVQLEASPAFLAVPVEKEQAPHCICANGRQTVSWAVTPKSLGNVNFTVSAEALESQELCGTEVPSVPEHGRKDTVIKPLLVEPEGLEKETTFNSLLCPSGGEVSEELSLKLPPNVVEESARASVSVLGDILGSAMQNTQNLLQMPYGCGEQNMVLFAPNIYVLDYLNETQQLTPEIKSKAIGYLNTGYQRQLNYKHYDGSYSTFGERYGRNQGNTWLTAFVLKTFAQARAYIFIDEAHITQALIWLSQRQKDNGCFRSSGSLLNNAIKGGVEDEVTLSAYITIALLEIPLTVTHPVVRNALFCLESAWKTAQEGDHGSHVYTKALLAYAFALAGNQDKRKEVLKSLNEEAVKKDNSVHWERPQKPKAPVGHFYEPQAPSAEVEMTSYVLLAYLTAQPAPTSEDLTSATNIVKWITKQQNAQGGFSSTQDTVVALHALSKYGAATFTRTGKAAQVTIQSSGTFSSKFQVDNNNRLLLQQVSLPELPGEYSMKVTGEGCVYLQTSLKYNILPEKEEFPFALGVQTLPQTCDEPKAHTSFQISLSVSYTGSRSASNMAIVDVKMVSGFIPLKPTVKMLERSNHVSRTEVSSNHVLIYLDKVSNQTLSLFFTVLQDVPVRDLKPAIVKVYDYYETDEFAIAEYNAPCSKDLGNA
For B1, the “Effect on PTP-A amidolytic activity (in words)” value in data set [1] is on record as “did not affect the enzyme activity”. Further, the “Cleavage of protein by PTP-A (in words)” value in data set [2] was “nor were they cleaved by PTP-A”.

B2: α1-antichymotrypsin: Human plasma inhibitor (protein)
chain: HPNSPLDEENLTQENQDRGTHVDLGLASANVDFAFSLYKQLVLKAPDKNVIFSPLSISTALAFLSLGAHNTTLTEILKGLKFNLTETSEAEIHQSFQHLLRTLNQSSDELQLSMGNAMFVKEQLSLLDRFTEDAKRLYGSEAFATDFQDSAAAKKLINDYVKNGTRGKITDLIKDLDSQTMMVLVNYIFFKAKWEMPFDPQDTHQSRFYLSKKKWVMVPMMSLHHLTIPYFRDEELSCTVVELKYTGNASALFILPDQDKMEEVEAMLLPETLKRWRDSLEFREIGELYLPKFSISRDYNLNDILLQLGIEEAFTSKADLSGITGARNLAVSQVVHKAVLDVFEEGTEASAATAVKITLLSALVETRTIVRFNRPFLMIIVPTDTQNIFFMSKVTNPKQA
B2: the “Effect on PTP-A amidolytic activity (in words)” value in data set [1] is “did not affect the enzyme activity”. Further, in data set [2], the “Cleavage of protein by PTP-A (in words)” value was “nor were they cleaved by PTP-A”.

B3: PTP-A: prolyl-tripeptidyl peptidase A (SEQ ID NO:30) from P. gingivalis (protein, listed as Porphyromonas gingivalis)
chain: MKKTIFQQLFLSVCALTVALPCSAQSPETSGKEFTLEQLMPGGKEFYNFYPEYVVGLQWMGDNYVFIEGDDLVFNKANGKSAQTTRFSAADLNALMPEGCKFQTTDAFPSFRTLDAGRGLVVLFTQGGLVGFDMLARKVTYLFDTNEETASLDFSPVGDRVAYVRNHNLYIARGGKLGEGMSRAIAVTIDGTETLVYGQAVHQREFGIEKGTFWSPKGSCLAFYRMDQSMVKPTPIVDYHPLEAESKPLYYPMAGTPSHHVTVGIYHLATGKTVYLQTGEPKEKFLTNLSWSPDENILYVAEVNRAQNECKVNAYDAETGRFVRTLFVETDKHYVEPLHPLTFLPGSNNQFIWQSRRDGWNHLYLYDTTGRLIRQVTKGEWEVTNFAGFDPKGTRLYFESTEASPLERHFYCIDIKGGKTKDLTPESGMHRTQLSPDGSAIIDIFQSPTVPRKVTVTNIGKGSHTLLEAKNPDTGYAMPEIRTGTIMAADGQTPLYYKLTMPLHFDPAKKYPVIVYVYGGPHAQLVTKTWRSSVGGWDIYMAQKGYAVFTVDSRGSANRGAAFEQVIHRRLGQTEMADQMCGVDFLKSQSWVDADRIGVHGWSYGGFMTTNLMLTHGDVFKVGVAGGPVIDWNRYEIMYGERYFDAPQENPEGYDAANLLKRAGDLKGRLMLIHGAIDPVVVWQHSLLFLDACVKARTYPDYYVYPSHEHNVMGPDRVHLYETITRYFTDHL
B3: the “Stability (time stable)” value is “at least 12 hours” in data set [3] (pH 7.6, 25° C.) and “at least 12 hours” in data set [3] (pH 7.6, 37° C.).

B4: human cystatin C: protein substrate, provided by Dr. Magnus Abrahamson (protein)
chain: SSPGKPPRLVGGPMDASVEEEGVRRALDFAVGEYNKASNDMYHSRALQVVRARKQIVAGVNYFLDVELGRTTCTKTQPNLDNCPFHDQPHLKRKAFCSFQIYAVPWQGTMTLSKSTCQDA
With B4, the “Cleavage of protein by PTP-A (in words)” value in data set [2] was “able to cleave a tripeptide”.
